The text below walks through data of patent US20050287527.

Turning to human α-thrombin, the “proteolytic cleavage of the peptide by thrombin” value in the data set with GFNPRHL, in the data set with GFSARHL, with GLDPRHL, in the data set on GPNPRHL and in the data set with GVDPRHL was “proteolytically cleaved after the arginine residues in the presence of the human thrombin” in each case.
